These results are taken from patent US20240218057A1.

Common to all, as to assay: cell-based or functional assay
Assay [1] concerns the target SARS-COV-2 spike protein A475V on pseudotyped virus (SARS-CoV-2) (UniProt P0DTC2).
The target in assay [2] is SARS-COV-2 spike protein E484K (R683G) on pseudotyped virus (SARS-CoV-2) (UniProt P0DTC2).
Assay [3] deals with SARS-COV-2 spike protein K417N on pseudotyped virus (SARS-CoV-2) (UniProt P0DTC2).
Assay [4] addresses SARS-COV-2 spike protein N440K on pseudotyped virus (SARS-CoV-2) (UniProt P0DTC2).
Assay [5] deals with SARS-COV-2 spike protein N501Y on pseudotyped virus (SARS-CoV-2) (UniProt P0DTC2).
For assay [6], the target named is SARS-COV-2 spike protein R346S on pseudotyped virus (SARS-CoV-2) (UniProt P0DTC2).
In assay [7] the target is SARS-COV-2 spike protein R683G on pseudotyped virus (SARS-CoV-2) (UniProt P0DTC2).
In assay [8] the target is SARS-CoV-2 spike protein A475V (pseudovirus) (SARS-CoV-2) (UniProt P0DTC2).
The target of assay [9] is SARS-CoV-2 spike protein E484K (R683G) (pseudovirus) (SARS-CoV-2) (UniProt P0DTC2).
The target in assay [10] is SARS-CoV-2 spike protein K417N (pseudovirus) (SARS-CoV-2) (UniProt P0DTC2).
In assay [11] the target is SARS-CoV-2 spike protein K417N/E484K/N501Y (R683G) (pseudovirus) (SARS-CoV-2) (UniProt P0DTC2).
Assay [12] has as its target SARS-CoV-2 spike protein N440K (pseudovirus) (SARS-CoV-2) (UniProt P0DTC2).
The target of assay [13] is SARS-CoV-2 spike protein N501Y (pseudovirus) (SARS-CoV-2) (UniProt P0DTC2).
Assay [14] deals with SARS-CoV-2 spike protein Q493R (pseudovirus) (SARS-CoV-2) (UniProt P0DTC2).
The target of assay [15] is SARS-CoV-2 spike protein R346S (pseudovirus) (SARS-CoV-2) (UniProt P0DTC2).
In assay [16] the target is SARS-CoV-2 spike protein R683G (pseudovirus) (SARS-CoV-2) (UniProt P0DTC2).

In the case of C144 (antibody), the neutralization IC50 in assay [1] is 3.19 ng/mL; in assay [2], > 1000 ng/mL; in assay [3], 1.84 ng/mL; in assay [4], 2.4 ng/mL; in assay [5], 3.05 ng/mL; in assay [6], 3.41 ng/mL. Further, in [7], the neutralization IC50 worked out at 1.23 ng/mL. Also, the neutralization IC90 in assay [1] was 16.2 ng/mL; in assay [2], > 1000 ng/mL; in [3], 11.5 ng/mL; in assay [4] it was 13.5 ng/mL; in assay [5], 18.9 ng/mL; in assay [6], 16.7 ng/mL. Besides, in assay [7], the neutralization IC90 amounted to 6.66 ng/mL. The IC50 neutralization in assay [8] was 3.2 ng/mL; in assay [9] it was > 1000 ng/mL; in assay [10] it was 1.8 ng/mL; in assay [11] it was > 1000 ng/mL; in [12], 2.4 ng/mL; in [13], 3 ng/mL. In addition, the IC50 neutralization was > 1000 ng/mL in assay [14], 3.4 ng/mL in assay [15] and 1.2 ng/mL in assay [16]. The IC90 neutralization in assay [8] is 16.2 ng/mL; in assay [9] it was > 1000 ng/mL; in assay [10] it was 11.5 ng/mL; in assay [11], > 1000 ng/mL; in assay [12], 13.5 ng/mL; in assay [13] it was 18.9 ng/mL. Also, the IC90 neutralization in assay [14] is > 1000 ng/mL; in [15], 16.7 ng/mL; in [16] it was 6.7 ng/mL.
Regarding C135 (antibody), the neutralization IC50 in assay [1] is 4.61 ng/mL; in assay [2], 1.99 ng/mL; in assay [3], 3.48 ng/mL; in assay [4] it was > 1000 ng/mL; in assay [5], 12.9 ng/mL; in [6] it was > 1000 ng/mL. The neutralization IC50 in [7] is 2.71 ng/mL. For the same substance, the neutralization IC90 in assay [1] is 27.2 ng/mL; in assay [2] it was 20 ng/mL; in assay [3], 14.7 ng/mL; in [4], > 1000 ng/mL; in assay [5] it was 141 ng/mL; in [6] it was > 1000 ng/mL. This substance yielded a neutralization IC90 in assay [7] of 22.8 ng/mL.
Take C121 (antibody): the neutralization IC50 in assay [1] was 2.53 ng/mL; in [2], > 1000 ng/mL; in assay [3] it was 3.1 ng/mL; in assay [4], 3.5 ng/mL; in assay [5], 3.75 ng/mL; in [6] it was 3.63 ng/mL. In [7], the neutralization IC50 amounted to 1.67 ng/mL. The neutralization IC90 in [1] was 18.3 ng/mL; in [2] it was > 1000 ng/mL; in assay [3], 16.3 ng/mL; in assay [4], 18.2 ng/mL; in assay [5], 18.9 ng/mL; in assay [6], 15.6 ng/mL. In assay [7], the neutralization IC90 was found to be 10.8 ng/mL.
